What is called IC50 is the midpoint of a concentration-inhibition curve. Low values mean higher potency, high ones lower potency. The term IC80 denotes the concentration at which the effect reaches the 80% level. Low readings indicate greater potency, high ones weaker potency.

Experiment in all cases: cell-based or functional assay
Experiment [1] concerns the target HIV-1 Env of pseudovirus SC05_8C11_2344 (HIV-1).
In experiment [2] the target is HIV-1 Env of pseudovirus 6244_13_B5_4576 (HIV-1).
The target of experiment [3] is HIV-1 Env of pseudovirus QH0692.42 (HIV-1).
The target in experiment [4] is HIV-1 Env of pseudovirus 1054_07_TC4_1499 (HIV-1).
Experiment [5] has as its target HIV-1 Env of pseudovirus CAP45.2.00.G3 (HIV-1).
Experiment [6] concerns the target HIV-1 Env of pseudovirus 3415.v1.c1 (HIV-1).
In experiment [7] the target is HIV-1 Env pseudovirus Du422.1 (HIV-1).
Experiment [8] has as its target HIV-1 Env pseudovirus SC05_8C11_2344 (HIV-1).
Experiment [9] addresses HIV-1 Env pseudovirus 6535.3 (HIV-1).
For experiment [10], the target named is HIV-1 Env pseudovirus WEAU_d15_410_787 (HIV-1).
For experiment [11], the target named is HIV-1 Env pseudovirus 62357_14_D3_4589 (HIV-1).
For experiment [12], the target named is HIV-1 Env pseudovirus Ce2060_G9 (HIV-1).
The target of experiment [13] is HIV-1 Env pseudovirus HIV-001428-2.42 (HIV-1).
Experiment [14] addresses HIV-1 Env pseudovirus TRO.11 (HIV-1).
In experiment [15] the target is HIV-1 Env pseudovirus ZM214M.PL15 (HIV-1).
In experiment [16] the target is HIV-1 Env pseudovirus TRJO4551.58 (HIV-1).
The target of experiment [17] is HIV-1 Env pseudovirus REJO4541.67 (HIV-1).
Experiment [18] addresses HIV-1 Env pseudovirus QH0692.42 (HIV-1).
The target of experiment [19] is HIV-1 Env pseudovirus CAP45.2.00.G3 (HIV-1).

For N49P7 (antibody), the IC50 in experiment [1] turned out to be 0.164 µg/mL; in [2], 0.111 µg/mL; in [3] it was 0.663 µg/mL; in experiment [4], 0.494 µg/mL; in experiment [5], 0.06 µg/mL; in experiment [6], 0.16 µg/mL. The IC80 was 0.403 µg/mL in experiment [1]; 0.386 µg/mL in experiment [2]; 2.41 µg/mL in experiment [3]; 2.31 µg/mL in [4]; 0.29 µg/mL in [5]; 0.55 µg/mL in experiment [6]. Also, the MPI in experiment [1], in [2], in [3], in experiment [4], in experiment [5] and in experiment [6] was 100 in each case.

For N49P7.1 (antibody), the IC50 in experiment [1] was determined as 0.189 µg/mL; in [2] it was 0.184 µg/mL; in experiment [3], 0.764 µg/mL; in experiment [4] it was 0.627 µg/mL; in [5], 0.086 µg/mL; in [6], 0.191 µg/mL. In addition, the IC80 in experiment [1] came out at 0.688 µg/mL; in experiment [2], 0.493 µg/mL; in experiment [3], 2.71 µg/mL; in experiment [4] it was 2.98 µg/mL; in [5], 0.567 µg/mL; in experiment [6] it was 0.647 µg/mL. Further, the MPI in experiment [1], in [2], in experiment [3], in [4], in [5] and in experiment [6] was 100 throughout.

In the case of N49P7.2 (antibody), the IC50 is more than 50 µg/mL in experiment [7]; 0.326 µg/mL in experiment [8]; 0.152 µg/mL in experiment [9]; 0.052 µg/mL in [10]; 0.03 µg/mL in [11]; 0.821 µg/mL in experiment [12]. Also, the IC50 is 0.01 µg/mL in [13]; 0.113 µg/mL in [14]; 0.559 µg/mL in [15]; 0.21 µg/mL in experiment [16]; 0.018 µg/mL in experiment [17]; 1.26 µg/mL in experiment [18]. The IC50 in experiment [19] turned out to be 0.162 µg/mL. Also, the IC80 in experiment [7] is more than 50 µg/mL; in [8], 1.14 µg/mL; in experiment [9] it was 0.784 µg/mL; in experiment [10] it was 0.15 µg/mL; in experiment [11] it was 0.121 µg/mL; in experiment [12] it was 2.81 µg/mL. The IC80 is 0.036 µg/mL in experiment [13]; 0.306 µg/mL in experiment [14]; 4.53 µg/mL in experiment [15]; 0.673 µg/mL in experiment [16]; 0.08 µg/mL in [17]; 4.42 µg/mL in [18]. For the same substance, in experiment [19], the IC80 is 2.49 µg/mL. In addition, the MPI in [7] was 22; in experiment [8], 100; in experiment [9] it was 100; in [10] it was 100; in experiment [11], 100; in experiment [12], 100. For the same substance, the MPI in experiment [13], in experiment [14], in experiment [15], in experiment [16], in [17] and in [18] was 100 each time. In addition, the MPI in experiment [19] came out at 95.

Turning to N49P9 (antibody), in experiment [6], the neutralization IC50 is 0.137 µg/mL, the neutralization IC80 stood at 0.502 µg/mL and the neutralization MPI came to 100.

Take N49P9.1 (antibody): in experiment [6], the neutralization IC50 came out at 0.21 µg/mL, the neutralization IC80 came out at 1.37 µg/mL and the neutralization MPI is 100.

As for N49P11 (antibody), the IC50 was 8.81 µg/mL in [7]; 5.42 µg/mL in experiment [8]; 8.22 µg/mL in [9]; 1.7 µg/mL in experiment [10]; 0.599 µg/mL in [11]; 3.33 µg/mL in [12]. Besides, the IC50 in experiment [13] was 0.221 µg/mL; in experiment [14], 0.179 µg/mL; in experiment [15] it was 1.35 µg/mL; in [16] it was 0.183 µg/mL; in [17] it was 10.8 µg/mL; in [18] it was 0.55 µg/mL. Besides, in [19], the IC50 amounted to 5.25 µg/mL. The IC80 is 21.2 µg/mL in experiment [7]; 20.5 µg/mL in experiment [8]; 17.2 µg/mL in [9]; 6.02 µg/mL in experiment [10]; 3.56 µg/mL in [11]; 13.2 µg/mL in experiment [12]. The IC80 in experiment [13] stood at 1.64 µg/mL; in [14], 0.937 µg/mL; in experiment [15], 8.98 µg/mL; in experiment [16] it was 0.656 µg/mL; in experiment [17], 27.1 µg/mL; in experiment [18], 2.65 µg/mL. In addition, the IC80 in [19] is 24 µg/mL. The MPI in [7], in experiment [8], in [9], in experiment [10], in experiment [11] and in [12] was 100 each time. Besides, the MPI in experiment [13], in [14], in experiment [15], in experiment [16], in experiment [17] and in experiment [18] was 100 each time. Moreover, the MPI in experiment [19] is 100.

For the substance N49P18.1 (antibody), the IC50 in experiment [7] was 21.5 µg/mL; in [8], 17.3 µg/mL; in experiment [9], 2.06 µg/mL; in [10] it was 4.27 µg/mL; in [11], 10.4 µg/mL; in experiment [12] it was more than 50 µg/mL. The IC50 is 1.13 µg/mL in [13]; 4.25 µg/mL in experiment [14]; more than 50 µg/mL in experiment [15]; 4.44 µg/mL in [16]; 4.08 µg/mL in experiment [17]; more than 50 µg/mL in experiment [18]. Also, the IC50 in experiment [19] stood at 5.14 µg/mL. In addition, the IC80 in experiment [7] was more than 50 µg/mL; in experiment [8] it was more than 50 µg/mL; in [9] it was 11.4 µg/mL; in [10] it was 15.5 µg/mL; in experiment [11] it was 48 µg/mL; in [12], more than 50 µg/mL. Besides, the IC80 in [13] was 8.31 µg/mL; in [14], 11.7 µg/mL; in experiment [15], more than 50 µg/mL; in experiment [16], 14.7 µg/mL; in experiment [17], 30.1 µg/mL; in experiment [18], more than 50 µg/mL. The IC80 in experiment [19] turned out to be 33.1 µg/mL. The MPI amounted to 75 in experiment [7]; 79 in experiment [8]; 100 in experiment [9]; 98 in experiment [10]; 82 in [11]; 37 in [12]. Besides, the MPI in [13] is 100; in experiment [14], 99; in experiment [15], 20; in [16], 99; in experiment [17], 89; in experiment [18] it was 43. In addition, the MPI in [19] is 88.

Regarding N49P19 (antibody), in experiment [6], the neutralization IC50 turned out to be 0.462 µg/mL, the neutralization IC80 is 2.04 µg/mL and the neutralization MPI stood at 100.

Take NIH 45-46 (antibody): the IC50 in experiment [1] is 0.14 µg/mL; in [2] it was 0.07 µg/mL; in [3], 0.55 µg/mL; in experiment [4] it was 0.07 µg/mL; in [5], more than 50 µg/mL; in [6] it was 0.07 µg/mL. For the same substance, the IC80 is 0.38 µg/mL in [1]; 0.26 µg/mL in experiment [2]; 1.56 µg/mL in experiment [3]; 0.61 µg/mL in experiment [4]; more than 50 µg/mL in experiment [5]; 0.07 µg/mL in experiment [6].

For PGDM1400 (antibody), the neutralization IC50 was 1.26 µg/mL in experiment [1]; more than 50 µg/mL in experiment [2]; more than 50 µg/mL in [3]; more than 50 µg/mL in experiment [4]; less than 0.001 µg/mL in experiment [5]. For the same substance, the neutralization IC80 in experiment [1] is 3.59 µg/mL; in experiment [2], more than 50 µg/mL; in experiment [3], more than 50 µg/mL; in experiment [4], more than 50 µg/mL; in [5] it was 0.002 µg/mL.

For PGT128 (antibody), the neutralization IC50 in experiment [1] was 0.017 µg/mL; in experiment [2] it was 0.02 µg/mL; in experiment [3], 0.029 µg/mL; in experiment [4], 0.035 µg/mL; in experiment [5], more than 50 µg/mL. In addition, the neutralization IC80 in [1] is 0.041 µg/mL; in experiment [2] it was 0.076 µg/mL; in experiment [3], 0.081 µg/mL; in experiment [4] it was 0.312 µg/mL; in experiment [5], more than 50 µg/mL.

With PGT145 (antibody), the neutralization IC50 is 0.093 µg/mL in experiment [1]; 7.27 µg/mL in experiment [2]; more than 50 µg/mL in experiment [3]; more than 50 µg/mL in experiment [4]; 0.001 µg/mL in [5]. The neutralization IC80 in experiment [1] is 0.248 µg/mL; in experiment [2], 44.5 µg/mL; in [3] it was more than 50 µg/mL; in experiment [4], more than 50 µg/mL; in experiment [5], 0.007 µg/mL.

On to PGT151 (antibody), for which the neutralization IC50 was 0.06 µg/mL in experiment [1]; more than 50 µg/mL in experiment [2]; 0.029 µg/mL in experiment [3]; 0.008 µg/mL in experiment [4]; 0.007 µg/mL in [5]. In addition, the neutralization IC80 in [1] was more than 50 µg/mL; in experiment [2], more than 50 µg/mL; in experiment [3] it was 0.522 µg/mL; in experiment [4], 0.032 µg/mL; in [5] it was more than 50 µg/mL.

The values above are taken from patent publication US20240117018A1.
